The values below come from patent US12433934B2, “Methods and compositions for preventing and treating atherosclerosis and related diseases” (Shanghai Puyou Biomedical Co., Ltd., priority 2018, dated 2025).

In one assay the test system is ApoE−/− mice. The experiment in a line: Atherosclerotic plaques of the aorta (en face oil red O staining) in high-fat diet ApoE−/− mice. Type of assay: in vivo. Particulars: ATV 40 mg/kg orally once a day, 13 weeks, high-fat diet. The procedure:
FIGS. 15-16. The sDSS1 protein inhibits the formation of atherosclerotic plaques in ApoE−/− mice. […] At the end of the injection, the aorta was dissected for oil red O staining, and the area of plaques was calculated.
Experimental animals: ApoE−/− mice, 8-week-old, male, were purchased from Nanjing Biomedical Research Institute of Nanjing University. The experimental animals were housed in an animal room for one week before the experiment.
Experimental method: ApoE−/− mice were fed with high-fat diet containing 0.25% cholesterol starting from the age of 9 weeks. From the 10th week of high-fat diet feeding, the mice were randomly divided into three groups according to the total cholesterol level, with 10 mice in each group. […] At the 22nd week of high-fat diet feeding, that is, the 13th week of administration, the animals were executed and dissected, and the whole aorta was separated. The separated aorta was stained with en face oil red O to evaluate the formation of atherosclerotic plaques.

Another assay has as its target T1, oxLDL (Homo sapiens, UniProt P04114).
T1 construct: purchased Solarbio H7980
The experiment in a line: Co-incubation with oxLDL, SDS-PAGE separation, Coomassie brilliant blue staining. The class given is binding. Particulars: phosphate buffer pH 7.2. The procedure: Experimental materials: sDSS1 protein, sDSS1 mutant protein 1 (sDSS1-M1, SEQ ID NO: 15), sDSS1 mutant protein 2 (sDSS1-M2, SEQ ID NO: 16), oxidized low density lipoprotein (oxLDL) (Solarbio, Article No.: H7980); low density lipoprotein (LDL) (Solarbio, Article No.: H7960).
Experimental method: 2 μg of oxLDL or LDL was mixed with 6 μg of sDSS1 protein or 10 μg of sDSS1 protein in a 1.5 ml EP tube in the presence of 20 mM sodium acetate/acetic acid buffer (pH 4.5) or 20 mM phosphate buffer (pH 7.2) respectively, and incubated at 37° C. for 12 h. A loading buffer was added in the incubated product and evenly mixed, and the obtained mixture was denatured at 100° C. for 10 min to prepare a loading sample. The resulting sample was subjected to electrophoretic separation via polyacrylamide gel electrophoresis (SDS-PAGE). After separation, the SDS-PAGE gel was stained with Coomassie brilliant blue to display protein strips. The sDSS1-M1 or sDSS1-M2 protein was respectively mixed and incubated with oxLDL, and treated in the same way. 15 μL of the sample was used for SDS-PAGE electrophoresis separation.

Substitutions are numbered along the chain they refer to. “Also recorded” adds a separate entry of the source.

T1 sequence (P04114 28-4563): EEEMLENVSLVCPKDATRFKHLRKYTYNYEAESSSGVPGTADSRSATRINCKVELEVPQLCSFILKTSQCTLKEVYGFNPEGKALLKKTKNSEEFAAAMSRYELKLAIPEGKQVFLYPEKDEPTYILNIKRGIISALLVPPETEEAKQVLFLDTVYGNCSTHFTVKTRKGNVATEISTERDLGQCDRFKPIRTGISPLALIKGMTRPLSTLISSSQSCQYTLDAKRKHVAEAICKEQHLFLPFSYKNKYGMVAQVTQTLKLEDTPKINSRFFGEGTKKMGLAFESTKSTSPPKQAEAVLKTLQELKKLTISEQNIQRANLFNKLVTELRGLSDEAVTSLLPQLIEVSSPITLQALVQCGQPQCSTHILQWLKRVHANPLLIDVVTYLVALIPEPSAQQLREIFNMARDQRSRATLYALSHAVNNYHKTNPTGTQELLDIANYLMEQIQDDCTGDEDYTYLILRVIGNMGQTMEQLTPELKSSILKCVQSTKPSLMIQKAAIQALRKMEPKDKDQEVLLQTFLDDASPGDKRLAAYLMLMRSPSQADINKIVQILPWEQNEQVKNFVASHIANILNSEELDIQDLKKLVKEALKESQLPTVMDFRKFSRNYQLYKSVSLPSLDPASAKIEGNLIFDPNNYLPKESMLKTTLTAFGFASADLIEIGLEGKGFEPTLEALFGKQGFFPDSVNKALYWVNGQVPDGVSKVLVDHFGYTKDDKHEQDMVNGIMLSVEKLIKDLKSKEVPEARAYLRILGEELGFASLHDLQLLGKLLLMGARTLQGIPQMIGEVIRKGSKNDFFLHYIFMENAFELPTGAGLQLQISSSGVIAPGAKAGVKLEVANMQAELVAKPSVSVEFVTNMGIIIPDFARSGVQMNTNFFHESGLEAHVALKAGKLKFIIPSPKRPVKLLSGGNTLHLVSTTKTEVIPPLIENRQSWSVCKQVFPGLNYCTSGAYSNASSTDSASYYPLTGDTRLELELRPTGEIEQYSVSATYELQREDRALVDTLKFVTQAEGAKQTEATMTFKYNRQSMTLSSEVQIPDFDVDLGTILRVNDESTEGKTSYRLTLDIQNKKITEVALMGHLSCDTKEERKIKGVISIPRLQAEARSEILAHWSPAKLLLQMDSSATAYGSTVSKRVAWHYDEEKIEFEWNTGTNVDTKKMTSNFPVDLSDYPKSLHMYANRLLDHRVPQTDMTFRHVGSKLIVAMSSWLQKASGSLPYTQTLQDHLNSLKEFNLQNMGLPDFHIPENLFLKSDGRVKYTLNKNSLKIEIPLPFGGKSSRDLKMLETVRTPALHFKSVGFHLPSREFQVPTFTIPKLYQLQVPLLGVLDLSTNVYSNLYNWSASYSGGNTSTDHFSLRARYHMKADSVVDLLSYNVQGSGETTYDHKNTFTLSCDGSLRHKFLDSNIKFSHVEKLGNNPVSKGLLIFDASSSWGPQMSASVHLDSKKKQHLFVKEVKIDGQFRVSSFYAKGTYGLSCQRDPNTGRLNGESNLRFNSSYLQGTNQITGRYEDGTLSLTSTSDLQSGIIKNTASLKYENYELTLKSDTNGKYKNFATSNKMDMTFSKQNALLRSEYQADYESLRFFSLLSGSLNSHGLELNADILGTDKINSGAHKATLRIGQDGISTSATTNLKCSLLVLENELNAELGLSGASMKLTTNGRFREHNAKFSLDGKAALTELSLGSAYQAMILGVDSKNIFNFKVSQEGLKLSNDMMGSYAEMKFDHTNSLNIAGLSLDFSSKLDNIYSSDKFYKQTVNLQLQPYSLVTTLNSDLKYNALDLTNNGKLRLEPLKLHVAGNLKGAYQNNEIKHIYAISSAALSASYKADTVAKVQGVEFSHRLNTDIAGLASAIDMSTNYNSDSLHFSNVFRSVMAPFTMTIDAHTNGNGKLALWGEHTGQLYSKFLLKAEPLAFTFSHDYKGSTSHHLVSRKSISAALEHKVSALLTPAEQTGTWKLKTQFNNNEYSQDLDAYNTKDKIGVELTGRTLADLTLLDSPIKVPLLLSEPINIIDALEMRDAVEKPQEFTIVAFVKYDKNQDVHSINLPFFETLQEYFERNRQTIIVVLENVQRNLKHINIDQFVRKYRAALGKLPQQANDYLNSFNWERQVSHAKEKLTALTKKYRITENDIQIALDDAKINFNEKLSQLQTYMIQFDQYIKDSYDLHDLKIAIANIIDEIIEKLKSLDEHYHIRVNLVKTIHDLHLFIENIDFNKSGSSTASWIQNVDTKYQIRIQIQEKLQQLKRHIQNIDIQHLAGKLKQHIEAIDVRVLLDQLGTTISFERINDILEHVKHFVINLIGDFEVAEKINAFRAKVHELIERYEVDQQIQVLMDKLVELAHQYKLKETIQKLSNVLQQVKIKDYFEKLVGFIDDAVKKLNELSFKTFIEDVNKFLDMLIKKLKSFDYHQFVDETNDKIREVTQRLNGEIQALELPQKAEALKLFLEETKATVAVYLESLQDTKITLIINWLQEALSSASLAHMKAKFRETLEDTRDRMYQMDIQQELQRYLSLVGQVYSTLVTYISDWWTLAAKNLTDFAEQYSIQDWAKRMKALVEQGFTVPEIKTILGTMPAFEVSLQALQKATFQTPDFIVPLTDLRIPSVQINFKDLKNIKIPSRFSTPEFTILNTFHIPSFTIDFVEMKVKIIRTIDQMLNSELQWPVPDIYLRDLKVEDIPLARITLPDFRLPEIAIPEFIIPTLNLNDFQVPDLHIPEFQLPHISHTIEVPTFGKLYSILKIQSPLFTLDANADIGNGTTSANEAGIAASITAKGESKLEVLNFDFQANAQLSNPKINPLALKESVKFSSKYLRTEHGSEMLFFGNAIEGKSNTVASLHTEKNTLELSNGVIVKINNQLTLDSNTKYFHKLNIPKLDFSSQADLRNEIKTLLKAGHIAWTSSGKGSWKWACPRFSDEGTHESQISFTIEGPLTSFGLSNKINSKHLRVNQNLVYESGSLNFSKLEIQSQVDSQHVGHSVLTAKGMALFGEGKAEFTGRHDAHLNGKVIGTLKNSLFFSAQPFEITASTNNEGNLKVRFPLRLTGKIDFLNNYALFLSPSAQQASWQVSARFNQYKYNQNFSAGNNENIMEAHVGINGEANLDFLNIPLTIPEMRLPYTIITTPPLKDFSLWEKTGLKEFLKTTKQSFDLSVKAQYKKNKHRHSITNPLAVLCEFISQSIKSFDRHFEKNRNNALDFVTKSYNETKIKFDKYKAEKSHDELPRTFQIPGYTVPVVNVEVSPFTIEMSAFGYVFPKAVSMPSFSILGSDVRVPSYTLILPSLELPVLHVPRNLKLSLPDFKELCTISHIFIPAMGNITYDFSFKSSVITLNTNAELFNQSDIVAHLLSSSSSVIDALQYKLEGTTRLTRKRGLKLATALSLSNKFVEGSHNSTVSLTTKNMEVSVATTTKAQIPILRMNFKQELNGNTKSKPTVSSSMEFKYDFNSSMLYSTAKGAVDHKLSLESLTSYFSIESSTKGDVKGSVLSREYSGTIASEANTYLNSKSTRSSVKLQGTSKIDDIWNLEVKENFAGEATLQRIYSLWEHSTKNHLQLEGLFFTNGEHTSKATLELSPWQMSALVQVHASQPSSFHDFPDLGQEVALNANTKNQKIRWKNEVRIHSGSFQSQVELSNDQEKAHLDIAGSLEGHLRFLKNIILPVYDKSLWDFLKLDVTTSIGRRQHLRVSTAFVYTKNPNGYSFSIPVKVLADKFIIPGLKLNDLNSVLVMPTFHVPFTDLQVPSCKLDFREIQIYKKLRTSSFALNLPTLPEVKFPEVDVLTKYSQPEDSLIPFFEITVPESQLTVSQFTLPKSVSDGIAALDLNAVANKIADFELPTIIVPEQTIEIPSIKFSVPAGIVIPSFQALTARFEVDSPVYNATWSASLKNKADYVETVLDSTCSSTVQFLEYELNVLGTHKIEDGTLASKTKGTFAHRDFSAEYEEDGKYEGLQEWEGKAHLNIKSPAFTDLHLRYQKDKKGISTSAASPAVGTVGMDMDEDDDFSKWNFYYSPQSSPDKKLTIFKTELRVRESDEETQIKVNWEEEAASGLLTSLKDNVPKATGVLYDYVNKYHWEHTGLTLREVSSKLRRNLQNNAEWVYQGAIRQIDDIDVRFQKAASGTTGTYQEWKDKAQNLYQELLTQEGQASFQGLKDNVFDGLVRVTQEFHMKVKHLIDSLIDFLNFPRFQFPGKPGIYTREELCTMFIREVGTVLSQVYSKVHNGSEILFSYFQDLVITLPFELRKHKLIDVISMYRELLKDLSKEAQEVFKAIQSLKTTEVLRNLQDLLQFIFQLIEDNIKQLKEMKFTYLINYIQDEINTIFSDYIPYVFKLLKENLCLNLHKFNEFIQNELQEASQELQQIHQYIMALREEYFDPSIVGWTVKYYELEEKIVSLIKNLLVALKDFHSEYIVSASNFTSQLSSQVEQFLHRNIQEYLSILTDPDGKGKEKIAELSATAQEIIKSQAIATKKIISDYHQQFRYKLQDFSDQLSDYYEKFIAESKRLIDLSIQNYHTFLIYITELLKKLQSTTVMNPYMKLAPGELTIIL

`CC(C)c1c(C(=O)Nc2ccccc2)c(-c2ccccc2)c(-c2ccc(F)cc2)n1CC[C@@H](O)C[C@@H](O)CC(=O)O` [ATV, Atorvastatin, reference compound]: the “Area of atherosclerotic plaques (en face oil red O) vs model group” value with ApoE−/− mice is on record as “significantly reduced”.

B1: sDSS1-M1: sDSS1 mutant protein 1, SEQ ID NO: 15 (protein)
chain: MSEKKQPVDLGLLEEDDEFEEFPAEDWAGLDEDEDAHVWEDNWDDDNVEDDFSNQLRATVLLMILVAETPYGAYVLHQKGRMASAFLAA
For the molecule B1, the “Interaction with oxLDL (complex on SDS-PAGE gel)” value with oxLDL is listed as “can also interact with oxLDL to form complexes; also recorded: interacted with the oxLDL protein”.

B2: sDSS1-M2: sDSS1 mutant protein 2, SEQ ID NO: 16 (protein)
chain: B1 chain with A67V, A73V, A83V, A88V, A89V
As for B2, the “Interaction with oxLDL (complex on SDS-PAGE gel)” value with oxLDL is listed as “can also interact with oxLDL to form complexes; also recorded: interacts with the oxLDL protein”.
